Where a chain is given by its changes, count along the chain named. Numbers in names are those of the source.
B1: DS-150 mutant CD200-Fc fusion protein (K130F, I131F, IgG2 Fc) (Fc fusion)
chain: QVQVVTQDEREQLYTPASLKCSLQNAQEALIVTWQKKKAVSPENMVTFSENHGVVIQPAYKDKINITQLGLQNSTITFWNITLEDEGCYMCLFNTFGFGFFSGTACLTVYVQPIVSLHYKFSEDHLNITCSATARPAPMVFWKVPRSGIENSTVTLSHPNGTTSVTSILHIKDPKNQVGKEVICQVLHLGTVTDFKQTVNKGERKCCVECPPCPAPPVAGPSVFLFPPKPKDTLMISRTPEVTCVVVDVSHEDPEVQFNWYVDGVEVHNAKTKPREEQFNSTFRVVSVLTVVHQDWLNGKEYKCKVSNKGLPAPIEKTISKTKGQPREPQVYTLPPSREEMTKNQVSLTCLVKGFYPSDISVEWESNGQPENNYKTTPPMLDSDGSFFLYSKLTVDKSRWQQGNVFSCSVMHEALHNHYTQKSLSLSPGK
notes: Purified as the dimeric form
B2: DS-149 mutant CD200-Fc fusion protein (K130Y, I131F, IgG2 Fc) (Fc fusion)
chain: B1 chain with F100Y
notes: Purified as the dimeric form
B3: DS-151 mutant CD200-Fc fusion protein (K130F, I131Y, IgG2 Fc) (Fc fusion)
chain: B1 chain with F101Y
notes: Purified as the dimeric form
B4: DS-161 mutant CD200-Fc fusion protein (K130F, IgG2 Fc) (Fc fusion)
chain: B1 chain with F101I
notes: Purified as the dimeric form
B5: DS-162 mutant CD200-Fc fusion protein (I131F, IgG2 Fc) (Fc fusion)
chain: B1 chain with F100K
notes: Purified as the dimeric form

Columns and labels:
[1] = target: T1, Recombinant Human CD200R, His tagged (human, UniProt Q8TD46 27-266, limits assumed); test: SPR (Biacore T200), CD200-Fc captured on anti-human Fc, His-tagged CD200R flowed over it, 25 C, 1:1 Langmuir model
T1 construct: Bought reagent; Flowed in solution as the analyte in the SPR; also called human CD200 receptor; CD200 receptor; not shown: His tag
T1 sequence (looked up): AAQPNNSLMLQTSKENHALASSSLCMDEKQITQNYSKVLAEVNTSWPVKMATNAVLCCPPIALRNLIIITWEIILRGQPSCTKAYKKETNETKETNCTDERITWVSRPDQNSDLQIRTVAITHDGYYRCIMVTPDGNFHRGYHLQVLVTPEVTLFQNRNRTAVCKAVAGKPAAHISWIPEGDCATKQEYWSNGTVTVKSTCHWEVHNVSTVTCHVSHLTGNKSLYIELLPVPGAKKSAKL
Method: (§1) Anti-human Fc was covalently immobilized on a BIAcore CM5 sensor chip by amine coupling using a GE Healthcare kit following the manufacturer's instructions. Maximum immobilization target was set between 10000-15000 RU. Flow cell 1 was used as a reference, with no immobilized ligand, to permit deduction of non-specific binding to the chip surface. The Fc-ligands were diluted to 0.5 μg/mL in BIAcore running buffer (HBS-EP+: 10 mM HEPES buffered saline containing 2 mM EDTA and 0.05% surfactant P-20). In the final immobilization step, wild-type CD200-Fc, mutant CD200-Fc and un-related control protein (Herceptin/Trastuzumab) were passed over the chip (using flow cells 2, 3 and 4 respectively), for 120 seconds, at a concentration giving rise to a minimum of 250 response units (RU), followed by stabilization of the surface for 120 seconds in running buffer. The CD200-Fc capture procedure was repeated for every CD200R concentration.
(§2) Following capture of the Fc-tagged proteins, CD200R (at different concentrations) was flowed over the captured CD200-Fc and control proteins for 120 seconds (to observe association), followed by 120 seconds of running buffer (to observe dissociation). The chip surface was then regenerated using 10 mM Glycine-HCl (pH 2) for 30 seconds (30 μl/min flow rate) followed by stabilization of the surface for 60 seconds with BIAcore running buffer before the next cycle. All CD200R concentrations were run in duplicate at the following concentrations: 1 μM, 500 nM, 250 nM, 125 nM, 62.5 nM, 31.25 nM, 15.6 nM and 0 nM.
(§3) The results were represented in sensorgrams plotted as response or resonance units (Rus) versus time. The experimental sensorgrams were analyzed in BIAevaluation software version 1.0 (GE Healthcare). […] Rate equations using standard parameters (e.g. ligand concentration, time) were used for iterative curve fitting. Closeness of fit was determined by algorithms provided by the manufacturer in the BIAevaluation software version 1.0.

[2] = target: T1, Recombinant Human CD200R, His tagged; test: SPR (Biacore T200), CD200-Fc captured on anti-human Fc, His-tagged CD200R flowed over it, 25 C, two state binding model
Method: as §1, with “concentration. […]” for “concentration.”
(§4) The results were represented in sensorgrams plotted as response or resonance units (Rus) versus time. The experimental sensorgrams were analyzed in BIAevaluation software version 1.0 (GE Healthcare). […] Closeness of fit was determined by algorithms provided by the manufacturer in the BIAevaluation software version 1.0.

[3] = target: T1, Recombinant Human CD200R, His tagged; test: SPR (BIAcore T200, 25 C): CD200-Fc captured through anti-human Fc on a CM5 chip, His-tagged human CD200R flowed over it. Sensorgrams fitted with the 2 site (two state) binding model. Table 4 of the text gives 3.0 nM for this fit.
Method: as §1, with “concentration. […]” for “concentration.”
as §4

[4] = target: T1, Recombinant Human CD200R, His tagged; test: SPR (Biacore T200), CD200-Fc captured on anti-human Fc, His-tagged CD200R flowed over it, 25 C, 1:1 binding model
Method: as §1, §2, §3

Row | Molecule | Kd [1] [nM] | koff [1] [s⁻¹] | kon [1] [M⁻¹ s⁻¹] | t½ [1] [min] | Kd [2] [nM] | Kd [3] [nM] | Kd [4] [nM] | koff [4] [s⁻¹] | kon [4] [M⁻¹ s⁻¹] | t½ [4] [min]
1 | DS-155 wild-type CD200-Fc fusion protein (IgG4 S228P Fc) | 50 | 0.0251 | 543000 | 0.467 | – | – | – | – | – | –
2 | B1 | 2.6 | 0.000226 | 87500 | 51.2 | – | – | – | – | – | –
3 | B2 | 1.9 | 0.000229 | 132000 | 50.5 | – | – | – | – | – | –
4 | B3 | 1.4 | 0.000181 | 128000 | 63.8 | – | – | – | – | – | –
5 | B4 | 0.7 | 0.000593 | 838000 | 19.5 | – | – | – | – | – | –
6 | B5 | – | – | – | – | 3 | 3.1 | 3 | 0.00474 | 1.9e+06 | 2.43
